The results in this text go back to the DeepSol protein solubility set.

This data set is described as follows: soluble on expression in E. coli; label from the status in PepcDB or PDB records.
For the sequence “MLQSTLLRKSIFYSLAHRRHVASVPLKDVFCDPENPKILQFGDISMAHHRIQNGIVRTDCRKSRCLSKLFDMNIYLKMEVNQDTGSFKERGARYALQNLPEEKKKAGVYAASAGNHALALSLHGKQLGVEVNVVMPKIAPLMKINRCQDLGANILVQGEDIAESREIALRMAHDSNGTYINGYDHYDILAGAGTTGIEILEQIQMPDAILVPVGGGGLVAGVATAVKALSPTTEVIGVVSETCQAIVKSLQAGHPVYTPTRPTLADGLAVPNAGVNAFASMIGKVDRVISVPENDIAVAILRLIENEKVVCEGAGAIGIGAILSGKLNHLKGKTVVSILSGGNIDSTSLGRCIERGLAYDHRVIRLSVIIPDKPGGLSKLTGLVGELSGNVRDLYLERAFMRNDMSSQRVKMVIEVRGEEHEMQLKQKFQEVYDPSNCQFKNNRLPRL”, the “soluble on expression in E. coli” value is recorded as “not soluble”. For “MTSEKLSAACHCGSVVFTVQLSDGFHTARRCNCSFCRMRGAVAVSAPLSGIKVLKGQDKLTEYRFNTGKAVHFFCSVCGIYTFHQRRSNPDQYGVNVACIENVSPFDFACVEVNDGVTHPSDGGSSGVVGYLRYEPKKSPPVETGGKNILEHHHHHH”, the “soluble on expression in E. coli” value was “soluble”. For “MPLNKLIQDGDNQDLTDERFKATFDTDALAAVFHGGEDALKRIRELRDEVTKRWHLFDALPGAHRTRAERMEDVSRKLKNLMESVGEFADFTNNLDMLVIIRDVMGIEGFPLALHNLMFVPTIQNQADDEQTEWWLMDALQGKIIGTYAQTELGHGTNLGAIETTATYDKLTEEFIIHTPTTTATKWWPGGLGTSCTHVVLVANLIIDTKNYGLHPFFVPIRDRNSYSVMSGVRVGDIGTKMGVNCVDNGFLAFDNYRIPRRNMLMKHSKVSKEGLYTAPSHPKVGYTTMLYMRSEMIYHQAYYLAMAMAISIRYSAVRRQGEIKPGTQEVQILDYQTQQYRIFPGLARCFAFNTAAATVRQMTENCIKQLSHGNSDVLADLHALSCGLKAVVTHQASQSIDQARQACGGHGYSDASYLPTLYTCSVGACTYEGENMVMLLQLSKYLMKAAAKAEKGEEMAPLVAYLVKPDITETNDKFAKMLSHFEHIARHRVMHAYRQMIEEEKQGIERDYAFANHSVDWTKAARAHTKLFIARGFVKSVQEVSDEAVHDVLTTLAELYLSYELIEMSADLTANGYLSESDVQQIRHQIYDSMRKTRRNAVSIVDSFDICDRELRSVLGRRDGHVYENLYKWAQMSPLNERNLPHVEKYLKPMTSKL” the value was “not soluble”; for “MGSDKIHHHHHHLPTIEQNRAPPFLAGLFCAIDLERRFLSNGKQKDFIMLDANTAQNPALLTVGYEGTDLRRFLACLEQSGVKTLVDVRERAQSRKKGFSKTALAEALAGIGIRYVHLRDLGDPKPGRDAARAGDYETFRKVFTSHMDTDAAKSALSELDTLAKEDRTCILCFERCHTECHRAIVATYLKELSPYDVVHVEV”, “not soluble”. With “ASLDSEVELLPHTSFAESLGPWSLYGTSEPVFADGRMCVDLPGGQGNPWDAGLVYNGVPVGEGESYVLSFTASATPDMPVRVLVGEGGGAYRTAFEQGSAPLTGEPATREYAFTSNLTFPPDGDAPGQVAFHLGKAGAYEFCISQVSLTTSAT”, the “soluble on expression in E. coli” value is reported as “soluble”. For “MAHHHHHHMQLLHAQQEGMKNIRQSEASHSDENDKKERGTRSGSTTGTCSEFDVCAVYDDDDVPLAAQFVRSCPPLTDPSWAMEELLRINSHVAVWTGSALPNSVWALPGSGHCPFGSTDADFARIR”, the “soluble on expression in E. coli” value was “not soluble”. In the case of “MSLIKVPCMQITNMHCSGQTVSLAAGDYHATIVTVGAGLAELTFQGCHLVIPHKPEEMPLAHLGKVLIPWPNRIANGCYRYQGQEYQLPINEHSSKAAIHGLLAWRDWQISELTATSVTLTAFLPPSYGYPFMLASQVVYSLNAHTGLSVEIASQNIGTVAAPYGVGIHPYLTCNLTSVDEYLFQLPANQVYAVDEHANPTTLHHVDELDLNFTQAKKIAATKIDHTFKTANDLWEMTITHPQQALSVSLCSDQLWVQVYSGEKLQRQGLAVEPMSCPPNAFNSGIDLLLLESGKPHRLFFNIYGQRKMGHHHHHHSH”, the “soluble on expression in E. coli” value is given as “not soluble”. In the case of “MIYAYIRVSTDKQTVENQRFEINRFAKQRDFQIDVWVEETVSGTRSAKDRKLGVLLKRIKKGDTLIVSEISRLGRRLMEVMSILNACMLKNVILLTVKEKYELGNNIQSQILAFAFSLSAQIERDLISQRTREGLARRIASGQKLGRPMGGHNSKYKLTGKEEKIKAMLEAGTSKAEMARKLKVSRNTLAAFLNRNRTGIPSN”, the “soluble on expression in E. coli” value was “not soluble”. The same measure for “MKLSAYHKARGGLVEWWNPKNHYDLVYKSRVFTDTYSKDTIAVTNADAVILGGTGYDLGENLPDAVEHTRPDAALYPQFSDTAYGFLSRGCPRNCGFCIVSGKEGRRSRKVADLSEFWDGQKEIKLLDANLLACPDHEALILQLAESRAWVDFSQGLDIRLITPDNVALLNRVRTRAVHFAWDNPDEDLTGYFRRFLELTAIKSDRKRRVYVLTNYGSTHEQDLYRVETLRGMGYDPYVMVYDRPAAPKITRQLQRWVNNKRIFYTVKNFADYIPNRTGGIT”: “not soluble”. In the case of “MKIVDVLCTPGLTGFYFDDQRAIKKGAGHDGFTYTGSTVTEGFTQVRQKGESISVLLVLEDGQVAHGDCAAVQYSGAGGRDPLFLAKDFIPVIEKEIAPKLIGREITNFKPMAEEFDKMTVNGNRLHTAIRYGITQAILDAVAKTRKVTMAEVIRDEYNPGAEINAVPVFAQSGDDRYDNVDKMIIKEADVLPHALINNVEEKLGLKGEKLLEYVKWLRDRIIKLRVREDYAPIFHIDVYGTIGAAFDVDIKAMADYIQTLAEAAKPFHLRIEGPMDVEDRQKQMEAMRDLRAELDGRGVDAELVADEWCNTVEDVKFFTDNKAGHMVQIKTPDLGGVNNIADAIMYCKANGMGAYCGGTCNETNRSAEVTTNIGMACGARQVLAKPGMGVDEGMMIVKNEMNRVLALVGRRK”, the “soluble on expression in E. coli” value is “soluble”. For the sequence “MTLSEEVASLQRAAHDLMYLGMDGSPIYSDDLSRRNNEVYRLTTTLYNSGVQGSTVEEQASVCLALLMGYNASFIDHGEKREHVQKILDRCWDILDTLPASLLKLRLLTACYGEVFDEPLADEARAIIASWDSVSLTTEQQEAINEFQTVVDNPYPWEYVEE”, the “soluble on expression in E. coli” value is “not soluble”. The same measure for “MGSDKIHHHHHHMKPRKQDEKILSDQYSYFEPIISDSCDIKFDGDKRRIGSIFISHEEICFIRKEEDYIFKISLSDVVDYNTVVTIWKNQASLTLNDNRKITFYFVTNSPLTGFISILKTYMQLSRNKETIIPDDNLLINDDDEQTKVEIFDVVGLNYEGRRKELKKLIKKMKTNDAFFFLYSDLKGNELKEELLYEDKVYEIPDYEVIPGVFLQKEPDNPYDENAIKVMISNEYSEFHVGYVPREYASRLVNYIEDTVSCNAYINGGKYKTLDYLEEKIVTKESDYGLRIHVEYKV”: “not soluble”. For “MMMDLNIRRVVLDVDKGLNRPTLVELAAAIEKVQGVEAVNIIVTEMDMETMGTNITVEGTNINYDELIETIENTGSAIHSVDEIAVGKRLIENVRRNQN” the value was “soluble”; for “MSSSNENAGKHSYLRSLISGLSSQGICAYVYASSGYGESSTDIVFTGKAFIAEAGEIVEEMERFRYEERMIISDIDVSRIQTERLINSSFKAAVTFHTHDEKFNQLPFKLRSRQESLPMTRRVLEHHHHHH”, “soluble”. Regarding “MNGNIIGEDEKGVALFVEDNSGNEHEIGVNSEGDIFHHADNVIPDNPSERSDKEDETFSQVRRFARYHVYREKGYDTIPTDENPDRIAAVLLAIIDLDDEEFENRFKPLYKQVMSHERPDVEPSLDLPDSVYHGGEPCYKQNIYLEESLEEMKSTVSEQLVESIGQEQITEVLQADSGDFFSRAASLFGGPNGNYGGLTIDGISGIDTVHLVDGKEQTIKSDDPFERGPDARLELYPSNFDFEAFRFYIGYNLICQIRDCFIGMGVEPPAQYRVLGPGKDKYTGKYHAFDFYPEYHNPGATIPGYIRPAPI”, the “soluble on expression in E. coli” value is listed as “not soluble”. In the case of “GMSYQNANYSAFYVSEPFSESNLGANSTHDFVYYNMLRMWKGEDNSFPFNDAHDKTYNVRDGSDWEKTLKPRLHTRLDNSKNIILFLSSITANSRALREEMNYGIGTKGLPVIVIYPDYDKKSDIVDSNGNFKKQIKDLWDKLPAFRDNMSSVATLHIPCTKSVIISALNNEDFMVNTMADAEKYYYKP”, the “soluble on expression in E. coli” value is “soluble”. Take “MGSDKIHHHHHHVLVLVLFTTVDRTPYKQMPYYTSMMKALDTFHVDVQHKKGDTLRAAWYKVALTPHTFPHPLAGYGLRKKAVSVNDTTFVRTFIFDNAKTRVAYVSLDLLIFPPALKDRVRAELETTYNLQVFLTATHTHSAPGGWEPKIAGRVLAGEYSDEYVALLFNAINECISKAIPRLQKVEQAYIRVSAPEAVQNRLKGADAPKDSFIRGIKFRNKSGEEACLFTFAAHANCLNSDVDYVSADYPGIVSAELEKRKWASFVSYAAGAVGSHAPTFETILDGKLRADTVSSILVEKLQETKAAYAYTNQLYYHRLPLFLRDAHLRVEKDIRIRPWVFNTILGKDIPDIQIIEIGETVLLGMPCDYSGELMPPLEKICADNQSNFMLSGFNGGYIGYITDDACYDWDRGETMDMNWFGPYNAAYLTEVNTVILKKVLTGE”: the “soluble on expression in E. coli” value is listed as “not soluble”. “MQFHIDDMTCGGCASTVKKTILTLDANATVRTDPATRLVDVETSLSAEQIAAALQKAGFPPRER”: the “soluble on expression in E. coli” value was “not soluble”.

“MSLTNEPLASRMRPNNIDEIISQEHLVGPKGIIRRMVETKRLSSMIFYGPPGIGKTSIAKAISGSTQFKFRQLNAVTNTKKDMQLIVEEAKMSGQVILLLDEIHRLDKAKQDFLLPHLENGKIVLIGATTSNPYHAINPAIRSRAQIFELYPLDENDVRVSLDRALNDSERGLASYNPKVDEDAMAYFTTQSQGDVRSALNALELAVLSSENIDQQRHITLQDAKDCLQKGAFVSDKDGDMHYDVMSAFQKSIRGSDVNAALHYLARLIEAGDLPTIVRRLLVISFEDVGLASPSAGQRTLAAIESAERLGFPEARIPLSQAVIELCLSPKSNSGINAIDAALSDIRKGHVGQIPDHLKDGHYAGAKELGRSIGYKYPHNYENGFVTQQYLPMKLKNRIYYEPKTTSKSEQQFKAVFDHINQSQQKNKEGHHHHHH”: the “soluble on expression in E. coli” value is recorded as “not soluble”. Consider “MGSDKIHHHHHHMTTAQQTENKGQQTRTVAELVEDIKALTTEIQELYCLDQIPWVLGVSWGKDSSTVLQLVWNAIAALPPEKRTKTVYVITTDTQVENPVVSAWVRKSLQNLKIAAKEQGMPIDPHLLQPVIQDTFWVNLIGKGYPAPRNQFRWCTPRLKINPANQFIREIVRANGETILVLGTRKAESSKRAATMKKHQVDRVRDRLSPNASLPNSLIYTPIEDWSNNDVWIYLNQWNNPWGQSNKELFTMYRGATADNECPLVVDTSTPSCGDSRFGCWVCTLVSKDKSMEAMIQNDEEKEWMQPLLDIRNELDIKDDRDKRDFRRIWGEVQLFERNKDGKISVDPIPGPYTKYWREYWLKRLLEAQIKTRRTAPENMRDITLITLEEMSEIRRIWLEDKHEFDDSLPRIYQEVTGEEFQDPRPGADYSLLGRDEWIVLEEICEGDAMHLELMAKLLDTERQYRKKTRRVGIYETLEKCFNTSSRSPEDAIKNARLKRELSEAVSQGDVAKVKQMTLGDVAAINEVDEGQSESDEEVTWASMKFKKENSEE”, for which the “soluble on expression in E. coli” value was “not soluble”. For “DNTQHYRELFLDDIPLMDVRAPVEYHKGAFPNTVNRPLMNDIERQKVGTSYKQHGQQAAIALGHELVCGALKAERLAAWKAFAEANPNGYLYCFRGGLRSQIVQQWLKQDAGIDYPRVIGGYKALRNFLFETTRAAVDECDFVLVGGLTGCGKTEVIAALDNSLDLEGHANHRGSSFGRRATPQPAQIDFENRLAIDILKKRHRGVGQFVLEDEGRIVGSCSLPLELYQGMQGYPLVWLEDAFEQRVERILRDYVIDLRSEFERVVGVEEGFAAFSAYLQKSLAGIVKRLGGERYQRLAAILVQALEEQGRDGSVDTHRGWIEGLLKEYYDPMYAFQRQSKEDRVEFRGNQAEVIGYLR” the value was “not soluble”.
